{"source": "paper doi:10.1101/2022.11.21.517443", "about": "(bioRxiv, 2022)", "proteins": {"B1": {"name": "Escherichia coli glutamine synthetase (enzyme, UniProt P0A9C5 1-469, looked up)", "chain": "MSAEHVLTMLNEHEVKFVDLRFTDTKGKEQHVTIPAHQVNAEFFEEGKMFDGSSIGGWKGINESDMVLMPDASTAVIDPFFADSTLIIRCDILEPGTLQGYDRDPRSIAKRAEDYLRSTGIADTVLFGPEPEFFLFDDIRFGSSISGSHVAIDDIEGAWNSSTQYEGGNKGHRPAVKGGYFPVPPVDSAQDIRSEMCLVMEQMGLVVEAHHHEVATAGQNEVATRFNTMTKKADEIQIYKYVVHNVAHRFGKTATFMPKPMFGDNGSGMHCHMSLSKNGVNLFAGDKYAGLSEQALYYIGGVIKHAKAINALANPTTNSYKRLVPGYEAPVMLAYSARNRSASIRIPVVSSPKARRIEVRFPDPAANPYLCFAALLMAGLDGIKNKIHPGEAMDKNLYDLPPEEAKEIPQVAGSLEEALNELDLDREFLKAGGVFTDEAIDAYIALRREEDDRVRMTPHPVEFELYYSV"}}, "target": "the molecule itself", "experiment": "single-particle cryo-EM 2D classification", "note": "Values joined by “and” are separate entries in the source; they are usually repeats but may differ in a detail not shown here. Equal entries are not always repeated.", "data": [{"protein": "B1", "values": [{"measurement": "stoichiometry N", "value": "10 subunits and 8 subunits"}]}]}
